Measurements taken from publication PMC4028237, “GmFT2a and GmFT5a Redundantly and Differentially Regulate Flowering through Interaction with and Upregulation of the bZIP Transcription Factor GmFDL19 in Soybean”.

Target: T1, GmFDL19 (Glycine max, UniProt I1N8K2 1-320)
T1 sequence: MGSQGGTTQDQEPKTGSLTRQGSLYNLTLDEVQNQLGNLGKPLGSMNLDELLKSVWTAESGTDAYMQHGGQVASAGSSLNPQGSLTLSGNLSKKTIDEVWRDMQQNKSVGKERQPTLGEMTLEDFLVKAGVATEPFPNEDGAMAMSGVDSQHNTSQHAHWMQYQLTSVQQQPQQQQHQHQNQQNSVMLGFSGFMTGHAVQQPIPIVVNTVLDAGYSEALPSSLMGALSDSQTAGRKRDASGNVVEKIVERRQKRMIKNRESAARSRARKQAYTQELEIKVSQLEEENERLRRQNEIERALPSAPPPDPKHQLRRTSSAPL
Assay: EMSA; Invitrogen EMSA kit E33075, 6% native TBE polyacrylamide gel, 200 V 45 min, SYBR Green stain; binding buffer, salt, pH and temperature not stated
Settings: protein: recombinant; tags: His (pET29b, NdeI/SalI); chain copies: 2; label: none (SYBR Green stain); blunt

B1: GmAP1aP-1280 CArG box (dsDNA)
DNA 1: GCAACCATCCATCCAAAAATAAGGCAAAAAAAATAAACAT
DNA 2: ATGTTTATTTTTTTTGCCTTATTTTTGGATGGATGGTTGC
Question: Does B1 bind?
Answer: Result: no binding
